# Measured values: the RNAGym collection of RNA variant scans (doi:10.1073/pnas.2313332121)
# Variants at the floor of the assay were thinned out.
# B1: TPR 5TU (parent)
# chain: GGAUCUUCUCGAUCUAACAAAAAAGACAAAUCUGCCACAAAGCUUGAGAGCAUCUUCGGAUGCAGAGGCGGCAGCCUUCGGUGGCGCGAUAGCGCCAACGUUCUCAACUAUGACACGCAAAACGCGUGCUCCGUUGAAUGGAGUUUAUCAUG
# Variants of: B1
# Assay: polymerase ribozyme fitness, log enrichment relative to wild type (log ratio); higher = more active; in vitro selection for triplet polymerase activity
# In short: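 Frozen incubation at −7 °C formed the core of a single, triplicate in vitro selection round applied to PCR-built, transcribed mutant libraries of each subunit of a heterodimeric triplet polymerase ribozyme. Extended constructs were gel-excised, captured with streptavidin beads and amplified by RT-PCR, and input and output libraries were Illumina-sequenced with a filter of ≥10 input reads and ≥1 read per output. Fitness is the logarithm of genotype enrichment relative to wild-type enrichment, with inverse-variance-weighted replicate averaging, and the logarithm is base 2.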
row,Variant,polymerase ribozyme fitness (log ratio)
1,U4G A29C C75A C96U A115U U148A,-3.99
2,U45C C57G G59U A66U G94A,≤ -4.2
3,A20C C118U,-0.906
4,U90G C96A C131G,≤ -4.2
5,C57G G84A C103U A110G,-3.52
6,U6C C85U A121U U135C,-3.27
7,A60U G84U,-1.58
8,A22U A37G A41G G48C G94U,≤ -4.2
9,A3U A22C U31C U61A,-2.45
10,G58C C103A U145G,-1.84
11,C105G A120U,-0.931
12,A66G A106G U139A,≤ -4.2
13,U13G C14G C57A G71A U101G G124A G141A,≤ -4.2
14,G59U G94A A98G,-1.07
15,A39C A41C G86U U139G,≤ -4.2
16,U55A C114A,-3.44
17,C54A U127C,-2.28
18,G86U A120G C129A U145G,-4.13
19,U15C A22G G42A G84A G133U,≤ -4.2
20,U55G A137C,-3.36
21,A16U C129A,-3.81

row,Variant,polymerase ribozyme fitness (log ratio)
1,C10G A16U A49C C51G A52U U56A C103G U146A,≤ -4.2
2,U13C G58A G88U U90A U102G,≤ -4.2
3,C5G C85A,-1.7
4,C38U A60C U77G C87U G94A U101A C105A,≤ -4.2
5,C85U A89G A106G G117A G126C G143C,≤ -4.2
6,G84U C123A,-1.79
7,A47C C69U G80C,≤ -4.2
8,A30C U33C G67A C93G A119U,-3.89
9,G11C G83A G141U,-0.379
10,C79A A91G A110G,≤ -4.2
11,A52G G58C C79U A98U U101G C108A,≤ -4.2
12,A19G A21C A30U C38G A41C G48A U77G C93G C114G,≤ -4.2
13,C103G G128C,≤ -4.2
14,C14U U31A A64C C75A C93G C103U,≤ -4.2
15,G74A G141U,-2.35
16,G50C C87U,-3.6
17,U45G C85G,-3.44
18,G50A A60U C96U U127A,-3.79
19,G59C A97U U139G,-0.518
20,C36A A66C G81A A91C C93U,≤ -4.2
21,A39G A97U,-2.96

row,Variant,polymerase ribozyme fitness (log ratio)
1,G65C C99G,≤ -4.2
2,A16G C38A U56G C96U C103U C149G,≤ -4.2
3,C18U A20U G59A G94A C116G A142G A150G,≤ -4.2
4,C32G C99U,≤ -4.2
5,C18U A39G U53C,-3.19
6,G94C A97G C116A,-0.587
7,A3C U4G G58C C93U C149U,-3.55
8,U13A A52U A73G C85A U134G,≤ -4.2
9,A37C A47C,-1.24
10,C38A U55A,-0.143
11,A49U A119C U127A U134A,≤ -4.2
12,A24U C87U,-0.48
13,A19G A47C C57A C96U U101G C123U U145A,-0.877
14,C10G U13A A23U C32A A41G G71C C87U C105U A115U,≤ -4.2
15,A47G G84C,-2.56
16,C27U C54U G83U,-2.12
17,A3U A28C C63U C85U A142C G152U,-3.91
18,U6A G25A A26C G50U A52G C76G C118G G136A,≤ -4.2
19,C14U C27G A37U A39G A66C U77A U78G C85U A89U C95G,≤ -4.2
20,C54U C95G A98G,-2.01
21,C35G A89C C96G,-4.02

row,Variant,polymerase ribozyme fitness (log ratio)
1,A20G G81A C96U C114G U127G A142C,≤ -4.2
2,A98U A142U,-2.98
3,A29U C69A G84A G141A,≤ -4.2
4,U9C A22C C54U C57U G100U C105G,≤ -4.2
5,A97G G152A,-3.19
6,C8A G25U U31A U82C C118G U145C,≤ -4.2
7,G70A A73U G133A U135G,≤ -4.2
8,C93G A98U,-2.82
9,A20G C57U G62C G136U,-3.44
10,U9G A40C,-3.48
11,A40U C54A A110G A120U,-4.07
12,U33G C116U,-2.7
13,U53A G83C C95U A97C G100A C116G,≤ -4.2
14,U9C C57G G140C,≤ -4.2
15,A49G G84A G152A,-2.8
16,G50C A52C C54U G88A C96G,≤ -4.2
17,A60U G70A C85U G86A,≤ -4.2
18,A89G G124U,-1.93
19,A119C U139C,-3.46
20,A49G G126U,-0.157
